Experimental data as given in article PMC10548395.

Target: IQ∼Sec7PH fusion protein of IQSEC3 (not stated (human or rat cDNA cloned)) (UniProt Q9UPP2)
Assay: ITC

Chain of UniProt Q9UPP2 (Q9UPP2 whole entry, looked up, the tested form may be a part): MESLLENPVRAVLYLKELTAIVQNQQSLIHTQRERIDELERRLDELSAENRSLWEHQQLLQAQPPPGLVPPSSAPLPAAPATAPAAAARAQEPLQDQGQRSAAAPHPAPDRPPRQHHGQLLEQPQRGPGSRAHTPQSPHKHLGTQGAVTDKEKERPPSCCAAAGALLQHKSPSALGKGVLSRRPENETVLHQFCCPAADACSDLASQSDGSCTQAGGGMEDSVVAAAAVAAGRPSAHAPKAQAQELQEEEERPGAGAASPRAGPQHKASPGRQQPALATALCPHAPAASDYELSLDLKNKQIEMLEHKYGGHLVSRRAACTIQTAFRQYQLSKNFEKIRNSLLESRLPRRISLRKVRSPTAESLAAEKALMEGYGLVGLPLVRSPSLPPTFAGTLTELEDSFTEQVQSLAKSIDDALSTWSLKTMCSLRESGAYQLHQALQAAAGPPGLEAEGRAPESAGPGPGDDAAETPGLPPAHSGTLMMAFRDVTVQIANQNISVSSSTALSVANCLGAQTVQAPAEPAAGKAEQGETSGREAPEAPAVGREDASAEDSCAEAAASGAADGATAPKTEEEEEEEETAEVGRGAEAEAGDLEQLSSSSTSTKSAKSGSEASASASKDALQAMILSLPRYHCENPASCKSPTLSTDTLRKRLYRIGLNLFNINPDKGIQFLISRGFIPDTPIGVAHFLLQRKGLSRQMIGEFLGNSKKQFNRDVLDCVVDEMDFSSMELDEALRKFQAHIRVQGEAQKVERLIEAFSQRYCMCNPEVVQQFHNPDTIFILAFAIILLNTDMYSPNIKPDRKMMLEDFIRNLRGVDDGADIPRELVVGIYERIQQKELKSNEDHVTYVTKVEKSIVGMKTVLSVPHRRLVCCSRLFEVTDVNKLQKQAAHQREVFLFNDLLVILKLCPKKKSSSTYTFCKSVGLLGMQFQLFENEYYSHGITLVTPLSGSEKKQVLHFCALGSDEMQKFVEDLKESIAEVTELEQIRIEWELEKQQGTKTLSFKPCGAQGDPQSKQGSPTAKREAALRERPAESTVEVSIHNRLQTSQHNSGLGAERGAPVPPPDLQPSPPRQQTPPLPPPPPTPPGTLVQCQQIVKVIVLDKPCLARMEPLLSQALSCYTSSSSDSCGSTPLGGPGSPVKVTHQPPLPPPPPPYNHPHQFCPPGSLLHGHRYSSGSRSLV

Substance: calmodulin (CaM) (from UniProt P0DP25 2-149) (natural protein)
- Kd: 1 nM
